Experimental findings from PMC3839849 (2013) are described below.

Usually Kd stands for the constant that tells how readily two partners part at equilibrium.

This test concerns the target CaV1.2 IQ domain (Homo sapiens, UniProt Q13936, Ca2+). The experiment in a line: ITC.

CaV1.2 IQ domain, sequence (Q13936 1665-1685): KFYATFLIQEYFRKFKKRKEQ

B1: CaBP1 C-lobe (protein)
chain: ADMIGVKELRDAFREFDTNGDGEISTSELREAMRKLLGHQVGHRDIEEIIRDVDLNGDGRVDFEEFVRMMSR
Molecule B1 had a Kd of 10.5 nM.
